Measurements from the NTF2 design screens of Basanta et al. (2020).

assay: protease stability score; higher = more stable; yeast display proteolysis, trypsin and chymotrypsin;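 further: relative to predicted unfolded state with 0 unfolded-like and 1 meaning tenfold more protease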

Question: For “DEEEEMVLEMAYLFIHALHTGDEDMIRHLADPNMKVDINGQEHHGRDMSNEWWRREIDQIKNVRVDIDIDELHVIDGVAYVRTTVRYHFDGRTIVYFTTFDLIIVNGKIKSVKWEVE”, which protease stability score is on record?
Answer: The protease stability score was 1.83.

Question: For “SERDEEAKHLSEEIIRLWRTGDWKTFVRMLDPNDRMEVDGQSFHGMEDVIKFLLDFWKHLRIEDIRFRDLKYQGDKASSHTEVDVRIGDKQTRLHTEVDVLVVNGKLKSHRIKIE”, which protease stability score is on record?
Answer: Its protease stability score is 1.08.

Question: For “SEDEEHAEFFNRLLAESLMTGDWRTIANLLDPHVRVRVGDKQHHGREQVIHLLTKLLEDWGLERVHIHLRELRVINGRIHTRNELHVGDKTVDVKVHTRKIDGRWVIEEIEFR”, which protease stability score is on record?
Answer: The protease stability score was 1.16.

Question: Which protease stability score does the source give for “DEETEDLRRWFEALLRSTHTGDFHTLNRLIDPNVRMDVGDKRHHGREFFEHLLRRADHIKIELEDYEFQGNKVIFHGKLIIHYNGQDLEYKSSMDAEKVDGRWIVRRVYLE” here?
Answer: The protease stability score was 1.58.

Question: With “DEKRKLAEEIMRLLLHAYKTGDEELIHKLADPDTRVIINGVDLHGWEEMNRHLEEIIRQFDHWDLKIRDFRIQGDKYHIHGHLIHIQGDKHIRHDVNFHIVFVNGRQTSNHIDIH” as the sequence, how does the protease stability score read?
Answer: Its protease stability score is 1.41.

Question: With “DEYERIWRDLVKLILHAHKTGDEDHLKRLMDPNAKIHVGEFEMIGRTDEELWKRLLGIERFHIHRIDIRTISIFDGRLHIEVDSDGQINGKRVEHHIEITLVIIDGKLHSVSHTLK” as the sequence, how does the protease stability score read?
Answer: Its protease stability score is 1.1.

Question: With “DETTETLLRISESNIRNWETGDFDTIKQLLDPHVRMEQGDKTNHGRERVAKSWTEFLRELRLKTVHLHEVDVQGEKALSHVILFVKIGDKKIEVEAHLLVVVIDGKVSSIHITIK” as the sequence, how does the protease stability score read?
Answer: The protease stability score was -0.305.

Question: With “SEHDKFTREMSEMLIEALLTGDWRIFEELADPNMRFHQGEFHFHGREEVSHRMLELVDLLGADHYDVREIRFQGDKIHTHLEYYIGDKLFRVDLHAEKVNGKWHLTIVHVDSH” as the sequence, how does the protease stability score read?
Answer: Its protease stability score is 2.03.

Question: Which protease stability score does the source give for “SEEEEAARHVLEEWLRSIRTGDEEFTERLLDPEARFHVNGVEIIGREHIIRRLREIRIHDIKMDVREIRIVDGRISIDVTYRIDGEVNGVKVDTSHEVRLVFVKINGRWLNRKEEVR” here?
Answer: Its protease stability score is 1.66.

Question: With “DELEHHLFELMEKMIKARLTGDEETLHRLADPDTRIEVGEFEFHGREHWVRFVRELDERIKNIRFEIRLRRYETVGNKIHIDIELRYHQGDKEEHHRTEWILIVFNGRLKSIQIVLH” as the sequence, how does the protease stability score read?
Answer: The protease stability score was 1.81.

Question: For “SEEDELAHRWVRTWVRAVETGDEDTLTELFDPHARIIITIGDKDIRLHGMHEMLRWYRFFKGMRIELEDMDIQGEKIDTDIRLHQGDKTTTTKLQLHIVNGRMEHVILRVQ”, which protease stability score is on record?
Answer: The protease stability score was 1.54.

Question: With “DEEERFSEEALRRIWHALETGDERIQEDLADPNVRIDVGEKSYHGREKWSEMIRHMRLHDIKIHHVIVINGRMRFHGRMDGNIDGKRIDTEVEIHFEKVDGKWLVRKIRIH” as the sequence, how does the protease stability score read?
Answer: Its protease stability score is 2.25.

Question: With “SEDEEEAHEFLKRLDNAHRTGDEDFVYEQMDPDVRIDINGREWHGRELAREYLSIYGIKVMEVKRVNVYDGRINVDGHVEFNGVRNKTTIIMQKIDGRWRVKSITIK” as the sequence, how does the protease stability score read?
Answer: The protease stability score was 1.41.

Question: With “SEEEKEAEEAMKRSLRSLETGDEELLDEMADPDVRLHVGEFQLIGRESFRKHQRRLTKRFKNMRFHIHRMEVYGEKLSIFGRFHWDGVDTETEIIEVKINGRWFLREVHIR” as the sequence, how does the protease stability score read?
Answer: The protease stability score was 0.639.

Question: For “DEDTEKAEKFVHSFLMAMLTGDEEELWKYLDPRVRTIIGDKHYHGREQTKKAWEELGIDHSDVERFHVHIQGDKVEVHIDLRVHVNGRSYDVHIILIVTKINGKWYIDTLIFRKV”, which protease stability score is on record?
Answer: The protease stability score was 1.44.

Question: With “DEDREDVKKYIEDLFHHLETGDFKEIEKNFDPNVRIFIDGRTIHGREEMVRWAEEMRYKLHEVRLHEVETQGEKIHIDLEIDIEIRIGDKRRRIRTRVIIFARKINGRWYVHQTDFR” as the sequence, how does the protease stability score read?
Answer: The protease stability score was 2.71.

Question: Which protease stability score does the source give for “LESEEDLREAIRILIEDLRTGDEDSLHNLLDPNVRIDVNGVKLHGMEWVSHTIRHLGVKHTYVINRRIKIQGNKVDIDGEFNLRYDGKEERRRITLHVQKIDGVWVIEEITIR” here?
Answer: Its protease stability score is 0.971.

Question: Which protease stability score does the source give for “TEDERMNKEFHRLIWELIDTGDEETLRKLADPNTRLEVNGKTIIGREEFLSIWKHELHMLGVKHLEIHIRSVMFFENRVENDVELVLHIGEYEERRRIHIFLIKINGKWYHKSERIR” here?
Answer: The protease stability score was 1.46.

Question: With “DEDDEFMKRLAEEVIKNLHTGDWESLVHLMDPNALFEFDGVRNHGREQTDRFWEEVHERYPNVREKWDIHTIDVFNGRAKVDSRITFHFDGRDYVHKSEFHLIVFNGKVKSVHIHIR” as the sequence, how does the protease stability score read?
Answer: Its protease stability score is 0.158.

Question: For “DELEEETRRFAKHWVESLLTGDEDKLSRLMDPNVILDVNGREHIGWERAVHHLSRLLKELGAKHINVRLHELRIYDGVAEIDSRLQIIVGDKTEEHNVKLVITKVDGRWVVKSITIH”, which protease stability score is on record?
Answer: The protease stability score was 1.95.
